Measured values taken from patent US20230165967A1 (TAE LIFE SCIENCES, published 2023).
Read-outs that look alike come from different tables or passages of the source. Values belong to the binder of their own block, whether it stands above or below them.

What was measured:
[1] = target: T1, recombinant human soluble ECD of hCD16a/FCGRIIIA (human, UniProt P08637 17-208); assay: ELISA: plate coated with recombinant human CD16a/FCGRIIIA ECD, antibody titrated 0.005-80 ug/ml, HRP goat anti-human Fc, OD650
T1 construct: extracellular domain; also called FcγRIIIa
T1 sequence (P08637 17-208): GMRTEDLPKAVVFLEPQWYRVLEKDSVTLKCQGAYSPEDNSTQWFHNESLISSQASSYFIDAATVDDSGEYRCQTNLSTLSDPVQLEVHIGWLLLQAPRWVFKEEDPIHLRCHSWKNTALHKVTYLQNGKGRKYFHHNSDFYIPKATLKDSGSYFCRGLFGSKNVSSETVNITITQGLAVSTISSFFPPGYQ

[2] = target: T2, FcγRIIa (CD32) (Sino Biological, cat #10374-H08H) (UniProt P12318 34-218); assay: Sandwich ELISA: anti-His capture of His-tagged FcγRIIA mixed with titrated antibody, HRP goat anti-human IgG Fc, OD650
T2 sequence (looked up): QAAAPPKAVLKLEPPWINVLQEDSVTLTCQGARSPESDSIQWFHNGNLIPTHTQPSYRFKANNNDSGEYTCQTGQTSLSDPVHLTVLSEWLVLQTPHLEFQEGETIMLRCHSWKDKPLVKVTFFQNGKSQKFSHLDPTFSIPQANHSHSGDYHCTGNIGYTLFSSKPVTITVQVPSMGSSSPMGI

[3] = target: T3, recombinant human soluble extracellular domain (ECD) of Trop2 (human, UniProt P09758 27-274); assay: ELISA: plate coated with recombinant human Trop2 ECD, antibody titrated 0.0003-20 nM, HRP goat anti-human Fc, OD650
T3 construct: extracellular domain; Bought protein
T3 sequence (looked up): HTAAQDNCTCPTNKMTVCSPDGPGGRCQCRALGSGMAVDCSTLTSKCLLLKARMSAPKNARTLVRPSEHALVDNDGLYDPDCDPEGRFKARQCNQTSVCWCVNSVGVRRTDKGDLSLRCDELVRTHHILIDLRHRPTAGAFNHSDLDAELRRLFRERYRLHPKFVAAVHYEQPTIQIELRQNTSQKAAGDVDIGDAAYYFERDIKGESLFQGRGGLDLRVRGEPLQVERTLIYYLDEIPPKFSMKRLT

[4] = target: T4, human C1q (sigma Cat #C1740) (human, UniProt P02745 23-245; P02746 28-253; P02747 29-245); assay: ELISA: plate coated with antibody at 1 ug/ml, human C1q titrated 0.625-40 ug/ml, rabbit anti-human C1q then HRP goat anti-rabbit, OD650
T4 sequence (P02745 23-245 limits assumed, chain 1 of 3): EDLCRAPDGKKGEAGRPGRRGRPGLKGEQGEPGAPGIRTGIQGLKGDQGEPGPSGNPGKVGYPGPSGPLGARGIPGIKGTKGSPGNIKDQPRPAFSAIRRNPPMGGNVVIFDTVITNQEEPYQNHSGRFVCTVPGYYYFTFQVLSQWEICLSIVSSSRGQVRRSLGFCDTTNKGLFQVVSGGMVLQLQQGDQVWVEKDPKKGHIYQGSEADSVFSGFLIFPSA
T4 sequence (P02746 28-253 limits assumed, chain 2 of 3): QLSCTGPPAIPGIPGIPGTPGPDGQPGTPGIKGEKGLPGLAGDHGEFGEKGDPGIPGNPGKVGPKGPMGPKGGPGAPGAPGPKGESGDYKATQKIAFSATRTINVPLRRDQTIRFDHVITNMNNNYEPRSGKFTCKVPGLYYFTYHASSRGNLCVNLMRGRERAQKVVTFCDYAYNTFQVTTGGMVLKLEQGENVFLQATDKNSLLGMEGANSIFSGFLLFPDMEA
T4 sequence (P02747 29-245 limits assumed, chain 3 of 3): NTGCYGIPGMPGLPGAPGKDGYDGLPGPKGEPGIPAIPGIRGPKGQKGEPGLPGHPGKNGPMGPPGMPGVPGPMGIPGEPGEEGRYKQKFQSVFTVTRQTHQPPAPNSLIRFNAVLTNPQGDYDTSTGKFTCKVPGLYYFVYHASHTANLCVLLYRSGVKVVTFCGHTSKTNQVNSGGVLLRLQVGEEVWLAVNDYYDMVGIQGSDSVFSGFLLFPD

[5] = target: T5, recombinant human soluble ECD of CD64/FCGRIA (human, UniProt P12314 16-292); assay: ELISA: plate coated with recombinant human CD64/FCGRIA ECD, antibody titrated, HRP goat anti-human Fc, OD650
T5 construct: extracellular domain; also called FcγRI
T5 sequence (P12314 16-292): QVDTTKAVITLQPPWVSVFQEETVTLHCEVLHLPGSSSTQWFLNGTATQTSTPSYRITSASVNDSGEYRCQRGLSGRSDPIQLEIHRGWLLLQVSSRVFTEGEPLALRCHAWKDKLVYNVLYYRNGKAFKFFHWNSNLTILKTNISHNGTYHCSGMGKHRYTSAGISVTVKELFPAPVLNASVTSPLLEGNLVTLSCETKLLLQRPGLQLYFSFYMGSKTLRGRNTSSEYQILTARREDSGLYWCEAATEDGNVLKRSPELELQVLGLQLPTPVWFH

[6] = target: T6, recombinant human FcRn (Sino Biological) (human, UniProt P55899 24-297; P61769 21-119); assay: ELISA at pH 6.0: plate coated with recombinant human FcRn, antibody titrated, HRP goat anti-human Fc, OD650
[7] = target: T4, human C1q (sigma Cat #C1740); assay: ELISA: plate coated with antibody at 1 ug/ml, human C1q titrated 0.625-40 ug/ml, rabbit anti-human C1q then HRP goat anti-rabbit, OD650; remark: listed apart in the source
[8] = target: T5, recombinant human soluble ECD of …; assay: ELISA: plate coated with recombinant human CD64/FCGRIA ECD, antibody titrated, HRP goat anti-human Fc, OD650; remark: listed apart in the source
[9] = target: T6, recombinant human FcRn (Sino Biological); assay: ELISA at pH 6.0: plate coated with recombinant human FcRn, antibody titrated, HRP goat anti-human Fc, OD650; remark: listed apart in the source
[10] = target: T7, recombinant human CDH3 full-length (human, UniProt P22223 25-829, limits assumed); assay: ELISA: plate coated with recombinant human full-length CDH3, antibody titrated 0.0003-20 nM, HRP goat anti-human Fc, OD650
T7 construct: plate-coated recombinant protein, not on cells

[11] = target: T1, recombinant human soluble ECD of …; assay: ELISA: plate coated with recombinant human CD16a/FCGRIIIA ECD, antibody titrated 0.005-80 ug/ml, HRP goat anti-human Fc, OD650; remark: listed apart in the source
[12] = target: T2, FcγRIIa (CD32) (Sino Biological, cat …); assay: Sandwich ELISA: anti-His capture of His-tagged FcγRIIA mixed with titrated antibody, HRP goat anti-human IgG Fc, OD650; remark: listed apart in the source
[13] = target: T1, recombinant human soluble ECD of …; assay: ELISA: plate coated with recombinant human CD16a/FCGRIIIA ECD, antibody titrated 0.005-80 ug/ml, HRP goat anti-human Fc, OD650; remark: listed apart in the source
[14] = target: T5, recombinant human soluble ECD of …; assay: ELISA: plate coated with recombinant human CD64/FCGRIA ECD, antibody titrated, HRP goat anti-human Fc, OD650; remark: listed apart in the source
[15] = target: T6, recombinant human FcRn (Sino Biological); assay: ELISA at pH 6.0: plate coated with recombinant human FcRn, antibody titrated, HRP goat anti-human Fc, OD650; remark: listed apart in the source

EC50 (read off the curve) [1]: ~2 µg/mL
binding result [2]: binds
EC50 (read off the curve) [3]: ~60 pM
binding result [4]: binds
EC50 (read off the curve) [5]: ~0.08 µg/mL
binding result [6]: binds
B1: Anti-Trop2 Ab Wild Type (antibody, human IgG1, kappa)
heavy: not shown
light: DIQLTQSPSSLSASVGDRVSITCKASQDVSIAVAWYQQKPGKAPKLLIYSASYRYTGVPDRFSGSGSGTDFTLTISSLQPEDFAVYYCQQHYITPLTFGAGTKVEIKRTVAAPSVFIFPPSDEQLKSGTASVVCLLNNFYPREAKVQWKVDNALQSGNSQESVTEQDSKDSTYSLSSTLTLSKADYEKHKVYACEVTHQGLSSPVTKSFNRGEC
notes: human IgG1 constant region; also called Anti-Trop2 Mab; anti-TROP2 mAb

binding result [2]: binds
EC50 (read off the curve) [3]: ~60 pM
binding result [4]: binds
binding result [5]: binds
EC50 (read off the curve) [6]: ~1 µg/mL
B2: Anti-Trop2 Ab L234A, L235A (antibody, human IgG1, kappa, L234A L235A)
heavy: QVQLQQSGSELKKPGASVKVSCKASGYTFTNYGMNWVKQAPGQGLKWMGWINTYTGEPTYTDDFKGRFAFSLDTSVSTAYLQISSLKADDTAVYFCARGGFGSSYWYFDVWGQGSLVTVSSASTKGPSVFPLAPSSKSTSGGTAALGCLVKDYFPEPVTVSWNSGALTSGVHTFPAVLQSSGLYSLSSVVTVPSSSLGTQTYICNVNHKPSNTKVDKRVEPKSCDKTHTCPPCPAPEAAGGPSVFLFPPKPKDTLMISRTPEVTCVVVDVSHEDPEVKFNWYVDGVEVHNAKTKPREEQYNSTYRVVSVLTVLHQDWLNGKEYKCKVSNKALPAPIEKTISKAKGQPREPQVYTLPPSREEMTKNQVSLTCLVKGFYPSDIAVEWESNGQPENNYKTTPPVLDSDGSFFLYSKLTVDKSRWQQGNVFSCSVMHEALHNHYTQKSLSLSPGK
light: B1 light
notes: Fc variant; wild-type light chain; also called Anti-Trop2 Mab double mutant; double mutation L234A and L235A

binding result [1]: no binding (tested: 80 ug/ml)
binding result [2]: binds
EC50 (read off the curve) [3]: ~60 pM
binding result [4]: binds
binding result [5]: no binding (tested: 30 ug/ml)
binding result [6]: binds
B3: Anti-Trop2 Ab L234A, L235A, L328C (antibody, human IgG1, kappa, L234A L235A)
heavy: QVQLQQSGSELKKPGASVKVSCKASGYTFTNYGMNWVKQAPGQGLKWMGWINTYTGEPTYTDDFKGRFAFSLDTSVSTAYLQISSLKADDTAVYFCARGGFGSSYWYFDVWGQGSLVTVSSASTKGPSVFPLAPSSKSTSGGTAALGCLVKDYFPEPVTVSWNSGALTSGVHTFPAVLQSSGLYSLSSVVTVPSSSLGTQTYICNVNHKPSNTKVDKRVEPKSCDKTHTCPPCPAPEAAGGPSVFLFPPKPKDTLMISRTPEVTCVVVDVSHEDPEVKFNWYVDGVEVHNAKTKPREEQYNSTYRVVSVLTVLHQDWLNGKEYKCKVSNKACPAPIEKTISKAKGQPREPQVYTLPPSREEMTKNQVSLTCLVKGFYPSDIAVEWESNGQPENNYKTTPPVLDSDGSFFLYSKLTVDKSRWQQGNVFSCSVMHEALHNHYTQKSLSLSPGK
light: B1 light
notes: Fc variant; wild-type light chain; also called Anti-Trop2 Mab triple mutant; triple mutation L234A, L235A, and L328C

binding result [2]: binds
EC50 (read off the curve) [3]: ~60 pM
binding result [4]: binds
EC50 (read off the curve) [5]: ~0.2 µg/mL
binding result [6]: binds
B4: Anti-Trop2 Ab L328C (antibody, human IgG1, kappa)
heavy: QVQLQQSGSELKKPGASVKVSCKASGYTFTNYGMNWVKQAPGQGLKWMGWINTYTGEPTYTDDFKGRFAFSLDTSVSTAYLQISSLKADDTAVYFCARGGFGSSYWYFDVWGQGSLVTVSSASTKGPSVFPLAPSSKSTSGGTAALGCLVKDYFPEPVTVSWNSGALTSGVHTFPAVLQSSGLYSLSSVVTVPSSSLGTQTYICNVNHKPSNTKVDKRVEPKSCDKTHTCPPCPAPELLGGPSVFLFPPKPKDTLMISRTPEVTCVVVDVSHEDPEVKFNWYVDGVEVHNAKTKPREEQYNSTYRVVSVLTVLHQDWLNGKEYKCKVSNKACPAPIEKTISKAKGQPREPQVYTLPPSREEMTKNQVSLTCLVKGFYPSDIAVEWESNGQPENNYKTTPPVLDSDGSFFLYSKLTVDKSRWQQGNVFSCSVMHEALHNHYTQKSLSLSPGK
light: B1 light
notes: Fc variant; wild-type light chain; also called Anti-Trop2 Mab single mutant; single mutation L328C

binding result [7]: binds
binding result [8]: binds
binding result [9]: binds
EC50 (read off the curve) [10]: ~40 pM
binding result [11]: no binding (tested: 80 ug/ml)
binding result [12]: binds
B5: Anti-CDH3 Ab L234A, L235A, L328C (antibody, human IgG1, kappa, L234A L235A)
heavy: QVQLQQSGPGLVKPSQTLSLTCAISGDSVSSQSAAWNWIRQSPSRGLEWLGRIYYRSKWYNDYALSVKSRITINPDTSKNQFSLQLNSVTPEDTAVYYCARGEGYGREGFAIWGQGTLVTVSSASTKGPSVFPLAPSSKSTSGGTAALGCLVKDYFPEPVTVSWNSGALTSGVHTFPAVLQSSGLYSLSSVVTVPSSSLGTQTYICNVNHKPSNTKVDKRVEPKSCDKTHTCPPCPAPEAAGGPSVFLFPPKPKDTLMISRTPEVTCVVVDVSHEDPEVKFNWYVDGVEVHNAKTKPREEQYNSTYRVVSVLTVLHQDWLNGKEYKCKVSNKACPAPIEKTISKAKGQPREPQVYTLPPSREEMTKNQVSLTCLVKGFYPSDIAVEWESNGQPENNYKTTPPVLDSDGSFFLYSKLTVDKSRWQQGNVFSCSVMHEALHNHYTQKSLSLSPGK
light: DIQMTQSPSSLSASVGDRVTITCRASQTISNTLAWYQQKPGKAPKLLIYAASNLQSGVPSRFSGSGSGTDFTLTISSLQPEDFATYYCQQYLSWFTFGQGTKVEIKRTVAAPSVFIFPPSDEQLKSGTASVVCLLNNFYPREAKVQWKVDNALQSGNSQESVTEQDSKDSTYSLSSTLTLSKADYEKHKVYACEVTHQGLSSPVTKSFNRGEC
notes: Fc variant; wild-type light chain; also called Anti-CDH3 Mab triple mutant; triple mutation L234A, L235A, and L328C

EC50 (read off the curve) [13]: ~2 µg/mL
EC50 (read off the curve) [14]: ~0.05 µg/mL
binding result [15]: binds
B6: Anti-EGFR Ab No. 3 Wild Type (antibody, human IgG1)
heavy: not shown
light: DIQMTQSPSSLSASVGDRVTITCRSSQNIVHSNGNTYLDWYQQTPGKAPKLLIYKVSNRFSGVPSRFSGSGSGTDFTFTISSLQPEDIATYYCFQYSHVPWTFGQGTKLQITREVAAPSVFIFPPSDEQLKSGTASVVCLLNNFYPREAKVQWKVDNALQSGNSQESVTEQDSKDSTYSLSSTLTLSKADYEKHKVYACEVTHQGLSSPVTKSFNRGEC
notes: human IgG1 constant region; also called Anti-EGFR Mab No. 3; anti-EGFR mAb No. 3

EC50 (read off the curve) [14]: ~4 µg/mL
binding result [15]: binds
B7: Anti-EGFR Ab No. 3 L234A, L235A (antibody, human IgG1, L234A L235A)
heavy: not shown
light: B6 light
notes: Fc variant; wild-type light chain; also called Anti-EGFR Mab No. 3 double mutant; double mutation L234A and L235A

EC50 (read off the curve) [14]: ~0.1 µg/mL
B8: Anti-EGFR Ab No. 3 L328C (antibody, human IgG1)
heavy: not shown
light: B6 light
notes: Fc variant; wild-type light chain, this heavy chain reads VDKRV where the wild type reads VDKKV; also called Anti-EGFR Mab No. 3 single mutant; single mutation L328C

binding result [13]: no binding (tested: 80 ug/mL)
B9: Anti-EGFR Ab No. 3 L234A, L235A, L328C (antibody, human IgG1, L234A L235A)
heavy: QVQLQQSGAEVKKPGSSVKVSCKASGYTFTNYYIYWVRQAPGQGLEWIGGINPTSGGSNFNEKFKTRVTITADESSTTAYMELSSLRSEDTAFYFCTRQGLWFDSDGRGFDFWGQGTTVTVSSASTKGPSVFPLAPSSKSTSGGTAALGCLVKDYFPEPVTVSWNSGALTSGVHTFPAVLQSSGLYSLSSVVTVPSSSLGTQTYICNVNHKPSNTKVDKRVEPKSCDKTHTCPPCPAPEAAGGPSVFLFPPKPKDTLMISRTPEVTCVVVDVSHEDPEVKFNWYVDGVEVHNAKTKPREEQYNSTYRVVSVLTVLHQDWLNGKEYKCKVSNKACPAPIEKTISKAKGQPREPQVYTLPPSREEMTKNQVSLTCLVKGFYPSDIAVEWESNGQPENNYKTTPPVLDSDGSFFLYSKLTVDKSRWQQGNVFSCSVMHEALHNHYTQKSLSLSPGK
light: B6 light
notes: Fc variant; wild-type light chain, this heavy chain reads VDKRV where the wild type reads VDKKV; also called Anti-EGFR Mab No. 3 triple mutant; triple mutation L234A, L235A, and L328C
